# Test results as given in patent US6232070A, “Pharmacological targeting of mRNA cap formation” (priority 1999, dated 2001).
# B1: Cet1(201-549)p (Saccharomyces cerevisiae S288C) (protein)
# chain: ANAAVDNIFEEKATLQSKKNNIKRDLEVLNEISASSKPSKYRNVPIWAQKWKPTIKALQSINVKDLKIDPSFLNIIPDDDLTKSVQDWVYATIYSIAPELRSFIELEMKFGVIIDAKGPDRVNPPVSSQCVFTELDAHLTPNIDASLFKELSKYIRGISEVTENTGKFSIIESQTRDSVYRVGLSTQRPRFLRMSTDIKTGRVGQFIEKRHVAQLLLYSPKDSYDVKISLNLELPVPDNDPPEKYKSQSPISERTKDRVSYIHNDSCTRIDITKVENHNQNSKSRQSETTHEVELEINTPALLNAFDNITNDSKEYASLIRTFLNNGTIIRRKLSSLSYEIFEGSKKVM
# notes: The kinetic parameters determined for ATP hydrolysis by Cet1(201-549)p; His-tag; made in house; host or cells: Escherichia coli BL21(DE3)
# B2: Cet1p (Saccharomyces cerevisiae S288C) (protein)
# chain: MSYTDNPPQTKRALSLDDLVNHDENEKVKLQKLSEAANGSRPFAENLESDINQTETGQAAPIDNYKESTGHGSHSQKPKSRKSSNDDEETDTDDEMGASGEINFDSEMDFDYDKQHRNLLSNGSPPMNDGSDANAKLEKPSDDSIHQNSKSDEEQRIPKQGNEGNIASNYITQVPLQKQKQTEKKIAGNAVGSVVKKEEEANAAVDNIFEEKATLQSKKNNIKRDLEVLNEISASSKPSKYRNVPIWAQKWKPTIKALQSINVKDLKIDPSFLNIIPDDDLTKSVQDWVYATIYSIAPELRSFIELEMKFGVIIDAKGPDRVNPPVSSQCVFTELDAHLTPNIDASLFKELSKYIRGISEVTENTGKFSIIESQTRDSVYRVGLSTQRPRFLRMSTDIKTGRVGQFIEKRHVAQLLLYSPKDSYDVKISLNLELPVPDNDPPEKYKSQSPISERTKDRVSYIHNDSCTRIDITKVENHNQNSKSRQSETTHEVELEINTPALLNAFDNITNDSKEYASLIRTFLNNGTIIRRKLSSLSYEIFEGSKKVM
# notes: the two truncated proteins were as active as full-length Cet1p in hydrolyzing ATP; His-tag; made in house; host or cells: Escherichia coli BL21(DE3)
# Legend:
# [1] = substrate: Nc1ncnc2c1ncn2[C@@H]1O[C@H](COP(=O)(O)OP(=O)(O)OP(=O)(O)O)[C@@H](O)[C@H]1O; assay: ATP hydrolysis by Cet1(201-549)p; type: biochemical, Saccharomyces cerevisiae; conditions: other: ATP hydrolysis by the truncated enzyme; pH 7.0; 30.0 °C
# Method: (FIG. 8A) Protein titration. Reaction mixtures (10 μl) containing 50 mM Tris HCl (pH 7.0), 5 mM DTT, 2 mM MnCl2, 1 mM [γ^32 P]ATP, and either Cet1p, Cet1(201-549)p, or Cet1(246-549)p were incubated for 15 min at 30° C. Pi release is plotted as a function of input protein. (FIG. 8B) Kinetics. Reaction mixtures (100 μl) containing 50 mM Tris HCl (pH 7.0), 5 mM DTT, 2 mM MnCl2, 1 mM [γ^32 P]ATP, and either 8, 16, or 32 nM Cet1p were incubated at 30° C. Aliquots (10 μl ) were withdrawn at the times indicated and quenched immediately by the addition of […] of 5 M formic acid. Pi release is plotted as a function of time. (FIG. 8C) Hydrolysis of [α^32 P]ATP. Reaction mixtures (100 μl) containing 50 mM Tris HCl (pH 7.0), 5 mM DTT, 2 mM MnCl2, 1 mM [α^32 P]ATP, and 100 ng of Cet1p were incubated at 30° C. Aliquots (10 μl) were withdrawn at the times indicated and quenched with formic acid. The products were analyzed by TLC. The levels of [α^32 P]ADP (o) and [α^32 P]AMP (q) are plotted as a function of time. An otherwise identical reaction containing 1 mM [γ^32 P]ATP was analyzed in parallel; Pi release (.cndot.). (FIG. 8D) ATP-dependence. Reaction mixtures (20 μl) containing 50 mM Tris HCl (pH 7.0), 5 mM DTT, 2 mM MnC2, 40 pg of Cet1p, and [γ^32 P]ATP as indicated were incubated for 15 min at 30° C. Pi release is plotted as a function of ATP concentration. […]
# [2] = substrate: Nc1ncnc2c1ncn2[C@@H]1O[C@H](COP(=O)(O)OP(=O)(O)OP(=O)(O)O)[C@@H](O)[C@H]1O; assay: ATP hydrolysis by Cet1p, manganese-dependent; type: biochemical, Saccharomyces cerevisiae; conditions: other: 2 mM MnCl2, pH 7.0, 30° C., double-reciprocal plot
# Method: (FIG. 8A) Protein titration. Reaction mixtures (10 μl) containing 50 mM Tris HCl (pH 7.0), 5 mM DTT, 2 mM MnCl2, 1 mM [γ^32 P]ATP, and either Cet1p, Cet1(201-549)p, or Cet1(246-549)p were incubated for 15 min at 30° C. Pi release is plotted as a function of input protein. (FIG. 8B) Kinetics. Reaction mixtures (100 μl) containing 50 mM Tris HCl (pH 7.0), 5 mM DTT, 2 mM MnCl2, 1 mM [γ^32 P]ATP, and either 8, 16, or 32 nM Cet1p were incubated at 30° C. Aliquots (10 μl ) were withdrawn at the times indicated and quenched immediately by the addition of […] of 5 M formic acid. Pi release is plotted as a function of time. (FIG. 8C) Hydrolysis of [α^32 P]ATP. […] The products were analyzed by TLC. […] An otherwise identical reaction containing 1 mM [γ^32 P]ATP was analyzed in parallel; Pi release (.cndot.). […]
# The extent of ^32 Pi release from [γ^32 P]ATP during a 15 min reaction was proportional to the amount of input Cet1p protein (FIG. 8A). ^32 Pi accumulated with time over 30 min; the rate of reaction varied linearly with Cet1p concentration (FIG. 8B). From a plot of initial rate versus enzyme concentration, a turnover number of 25 s^-1 was calculated. Cet1p catalyzed the quantitative conversion of [α^32P]ATP to [α^32 P]ADP. […] No formation of [α^32 P]AMP from [α^32 P]ATP was detected, even after 20-45 min of incubation, by which time all of the nucleotide had been converted to ADP. […]
Protein,Km [1],Km [2]
B1,3.3 µM,
B2,,2.8 µM
